Measurements from US10532083B2, “Methods for inducing differentiation or conversion of white adipocytes and/or preadipocytes to brown adipocites using FGF8” (Technische Universität München, priority 2014, dated 2020).

System: subcutaneous, inguinal white adipocytes
Experiment: Ucp1 / brown adipocyte marker mRNA (qPCR) in immortalized inguinal white adipocytes treated with FGFs
Type: cell-based, murine
Procedure: Screening paracrine FGFs for a browning potential. A, B—Screening of all paracrine FGFs in immortalized white adipocytes. Subcutaneous, inguinal and visceral, epididymal white adipocytes were grown to confluence in Dulbecco's modified Eagle's medium with 4.5 g/l glucose, supplemented with 20 nmol/l insulin, 1 nmol/l triiodothyronine, 20% fetal bovine serum, and penicillin/streptomycin. Upon reaching confluence, differentiation was induced with 500 mmol/l isobutylmethylxanthine, 250 mmol/l indomethacine, and 2 mg/ml dexamethasone for 24 hours. Subsequently, members of the paracrine FGF protein family were added to the medium for the following six days. The medium and the FGF indicated were changed every 48 hours. Untreated cells served as a negative control. At the end of the differentiation process total RNA was isolated using TRIzol reagents, RNA quality and concentration was measured by photometric analysis, and 5 μg of total RNA was reverse-transcribed to cDNA. Finally, quantitative analysis of UCP-1 mRNA expression was performed. A bar graph analysis including the SEM of 3 to 6 independent experiments is shown. […] B—Four different splicing forms of the Fgf8 gene were compared by quantifying Ucp1 mRNA expression in fully differentiated white adipocytes. UCP-1 mRNA abundance is shown in percent of the FGF8b value. Fgf8b and Fgf8f were able to increase expression in epididymal adipocytes. C—Illustration depicting the different exon usage that characterizes the FGF8 spliceforms a, b, e, and f.
Dose dependency of Ffg8b action. A, B—Subcutaneous, inguinal and visceral, epididymal white adipocytes were grown to confluence in Dulbecco's modified Eagle's medium with 4.5 g/l glucose, supplemented with 20 nmol/l insulin, 1 nmol/l triiodothyronine, 20% fetal bovine serum, and penicillin/streptomycin. Upon reaching confluence, differentiation was induced with 500 mmol/l isobutylmethylxanthine, 250 mmol/l indomethacine, and 2 mg/ml dexamethasone for 24 hours. Subsequently, FGF8b in five indicated concentrations were added to the medium for the following six days. The medium and the FGF8b were changed every 48 hours. Untreated cells served as a negative control. At the end of the differentiation process total RNA was isolated using TRIzol reagents, RNA quality and concentration was measured by photometric analysis, and 5 μg of total RNA was reverse-transcribed to cDNA. Finally, quantitative analysis of UCP-1 mRNA expression was performed. FGF8b induces Ucp1 mRNA abundance in inguinal and epididymal adipocytes. Epididymal fat cells were more dose dependently responsive to Fgf8b treatment as compared to inguinal cells. The latter were responsive to FGF8b treatment above the threshold indicated. B—The absolute increase of several genes typical for brown fat cells.
Treatment timecourse experiment. A, B—Subcutaneous, inguinal and visceral, epididymal white adipocytes were grown to confluence (prolif. denotes proliferation period) in Dulbecco's modified Eagle's medium with 4.5 g/l glucose, supplemented with 20 nmol/l insulin, 1 nmol/l triiodothyronine, 20% fetal bovine serum, and penicillin/streptomycin. Upon reaching confluence, differentiation was induced with 500 mmol/l isobutylmethylxanthine, 250 mmol/l indomethacine, and 2 mg/ml dexamethasone for 24 hours (induction). Subsequently, the cells were cultured for another six days (differentiation). At the end of the differentiation process total RNA was isolated using TRIzol reagents, RNA quality and concentration was measured by photometric analysis, and 5 μg of total RNA was reverse-transcribed to cDNA. Finally, quantitative analysis of UCP-1 mRNA expression was performed. Untreated cells served as a negative control. A bar graph analysis including the SEM of 5 independent experiments is shown. A—Epididymal fat cells were treated with FGF8b during different time windows as given by black squares indicating one day of treatment each. […]

B1: FGF8b: murine recombinant paracrine fibroblast growth factor 8, major spliceform b (R&D Systems); amino acid sequence identical to human, SEQ ID NO:16/20 (protein)
chain: MGSPRSALSCLLLHLLVLCLQAQVTVQSSPNFTQHVREQSLVTDQLSRRLIRTYQLYSRTSGKHVQVLANKRINAMAEDGDPFAKLIVETDTFGSRVRVRGAETGLYICMNKKGKLIAKSNGKGKDCVFTEIVLENNYTALQNAKYEGWYMAFTRKGRPRKGSKTRQHQREVHFMKRLPRGHHTTEQSLRFEFLNYPPFTRSLRGSQRTWAPEPR
modifications: human FGF8b
With B1 the “Ucp1 mRNA abundance, induction” value (fully differentiated inguinal cell line, treatment after induction for entire differentiation period of 6 days, screening concentration 25.0 ng/ml, untreated cells as control) was 2.1 fold, the “Induction of Ucp1 mRNA expression (browning potential), screening of paracrine FGFs and FGF8 spliceforms” value (inguinal adipocytes, six days of differentiation, FGF8a, b, e, f 25.0 ng/ml, FGF17 10.0 ng/ml) was “only isoform with browning potential” and the “Cidea mRNA abundance” value (inguinal adipocytes, treatment during differentiation, smaller effect size than in epididymal) was “increased”. The “Ucp1 mRNA abundance, dose dependency” value (inguinal cells, different concentrations during entire differentiation phase of 6 days) was “only the highest dose increased Ucp1 expression”, the “Most effective concentration for Ucp1 induction” value (inguinal cells, highest concentration tested, 6 days of differentiation) was 125 ng/mL and the “Final Ucp1 mRNA abundance after full differentiation (responsiveness)” value (inguinal cells, treatment during different days of proliferation, induction and/or differentiation) was “only responsive to FGF8b treatment in their fully differentiated state”.
